# B1: EPO: modified mRNA encoding human erythropoietin, SEQ ID NO: 7, Cap1, fully modified with 5-methylcytosine and pseudouridine; LNP NPA-060-1 in Examples 17-22 (nucleic acid)
# chain: GGGAAAUAAGAGAGAAAAGAAGAGUAAGAAGAAAUAUAAGAGCCACCAUGGGAGUGCACGAGUGUCCCGCGUGGUUGUGGUUGCUGCUGUCGCUCUUGAGCCUCCCACUGGGACUGCCUGUGCUGGGGGCACCACCCAGAUUGAUCUGCGACUCACGGGUACUUGAGAGGUACCUUCUUGAAGCCAAAGAAGCCGAAAACAUCACAACCGGAUGCGCCGAGCACUGCUCCCUCAAUGAGAACAUUACUGUACCGGAUACAAAGGUCAAUUUCUAUGCAUGGAAGAGAAUGGAAGUAGGACAGCAGGCCGUCGAAGUGUGGCAGGGGCUCGCGCUUUUGUCGGAGGCGGUGUUGCGGGGUCAGGCCCUCCUCGUCAACUCAUCACAGCCGUGGGAGCCCCUCCAACUUCAUGUCGAUAAAGCGGUGUCGGGGCUCCGCAGCUUGACGACGUUGCUUCGGGCUCUGGGCGCACAAAAGGAGGCUAUUUCGCCGCCUGACGCGGCCUCCGCGGCACCCCUCCGAACGAUCACCGCGGACACGUUUAGGAAGCUUUUUAGAGUGUACAGCAAUUUCCUCCGCGGAAAGCUGAAAUUGUAUACUGGUGAAGCGUGUAGGACAGGGGAUCGCUGAUAAGCUGCCUUCUGCGGGGCUUGCCUUCUGGCCAUGCCCUUCUUCUCUCCCUUGCACCUGUACCUCUUGGUCUUUGAAUAAAGCCUGAGUAGGAAG
# modifications: Cap1, 5-methylcytosine, pseudouridine
# Tests used:
# mice = assay: Example 18: time course LNP IV in mice, serum EPO/G-CSF ELISA (Table 35); assay type: in vivo; details: for protein expression detectable out to: mice IV; for EPO / G-CSF Serum Concentration: mice, LNP IV
# Description: Formulations, listed in Table 33, were characterized by particle size, zeta potential, and encapsulation.
# LNP formulations, shown in Table 33 (above), were administered to mice (n=5) intravenously (IV) at a single modified mRNA dose of 0.5, 0.05 or 0.005 mg/kg. The mice were bled at 8 hours, 24 hours, 72 hours and 6 days after they were administered with G-CSF or EPO modified mRNA formulations to determine protein expression using ELISA.
# [1] = tested on: non-human primates (cynomolgus monkey); assay: Example 22: NHP hematology: neutrophils, reticulocytes, HGB, HCT, RBC (Tables 40-44); assay type: in vivo; details: for HCT / RBC: 0.005 mg/kg
# Description: LNP formulations, shown in Table 33 (above), were administered to non-human primates (NHP) (cynomolgus monkey) (n=2) as intravenous injection (IV). The NHP were administered a single modified mRNA IV dose of 0.5 mg/kg, 0.05 mg/kg or 0.005 mg/kg of G-CSF or EPO in a dose volume of 0.5 mL/kg. The NHPs were bled before dosing with the modified mRNA LNP formulations to determine protein expression in the serum and a baseline complete blood count. After administration with the G-CSF modified mRNA formulation the NHP were bled at 8, 24, 48 and 72 hours to determined protein expression. After administration with the EPO modified mRNA formulation the NHP were bled at 8, 24, 48, 72 hours and 7 days to determined protein expression.
# Samples collected from the NHPs after they were administered with G-CSF or EPO modified mRNA formulations were analyzed by ELISA to determine protein expression. Neutrophil and reticulocyte count was also determined pre-dose, 24 hours, 3 days, 7 days, 14 days and 18 days after administration of the modified G-CSF or EPO formulation.
molecule,measurement,setting,value
B1,protein expression detectable out to,mice,6 days
same,protein expression detectable out to,mice; 0.005 mg/kg and 0.05 mg/kg,3 days
same,EPO / G-CSF Serum Concentration,"mice; 0.005 mg/kg, 8 hours","12,508.3 pg/ml"
same,EPO / G-CSF Serum Concentration,"mice; 0.005 mg/kg, 24 hours","6,803.0 pg/ml"
same,EPO / G-CSF Serum Concentration,"mice; 0.05 mg/kg, 8 hours","92,139.9 pg/ml"
same,EPO / G-CSF Serum Concentration,"mice; 0.05 mg/kg, 24 hours","54,389.4 pg/ml"
same,EPO / G-CSF Serum Concentration,"mice; 0.5 mg/kg, 8 hours","498,515.3 pg/ml"
same,EPO / G-CSF Serum Concentration,"mice; 0.5 mg/kg, 24 hours","160,566.3 pg/ml"
same,EPO / G-CSF Serum Concentration,"mice; 0.5 mg/kg, 72 hours","3,492.5 pg/ml"
same,EPO / G-CSF Serum Concentration,"mice; 0.5 mg/kg, 6 days",21.2 pg/mL
same,Female NHP HGB,"[1]; 0.005 mg/kg IV, 14/18 days",129 g/L
same,Female NHP Neutrophils,"[1]; 0.005 mg/kg IV, 14/18 days",2.54 10^9/L
same,Male NHP HGB,"[1]; 0.005 mg/kg IV, 14/18 days",128 g/L
same,Male NHP Neutrophils,"[1]; 0.005 mg/kg IV, 14/18 days",1.52 10^9/L
same,Female NHP HGB,"[1]; 0.005 mg/kg IV, 24 hours",128 g/L
same,Female NHP Neutrophils,"[1]; 0.005 mg/kg IV, 24 hours",2.59 10^9/L
same,Male NHP HGB,"[1]; 0.005 mg/kg IV, 24 hours",122 g/L
same,Male NHP Neutrophils,"[1]; 0.005 mg/kg IV, 24 hours",5.37 10^9/L
same,Female NHP HGB,"[1]; 0.005 mg/kg IV, 3 days",130 g/L
same,Female NHP Neutrophils,"[1]; 0.005 mg/kg IV, 3 days",2.83 10^9/L
same,Male NHP HGB,"[1]; 0.005 mg/kg IV, 3 days",125 g/L
same,Male NHP Neutrophils,"[1]; 0.005 mg/kg IV, 3 days",6.08 10^9/L
same,Female NHP HGB,"[1]; 0.005 mg/kg IV, 7 days",127 g/L
same,Female NHP Neutrophils,"[1]; 0.005 mg/kg IV, 7 days",2.23 10^9/L
same,Male NHP HGB,"[1]; 0.005 mg/kg IV, 7 days",119 g/L
same,Male NHP Neutrophils,"[1]; 0.005 mg/kg IV, 7 days",3.51 10^9/L
same,Female NHP HGB,"[1]; 0.005 mg/kg IV, Pre-dose",136 g/L
same,Female NHP Neutrophils,"[1]; 0.005 mg/kg IV, Pre-dose",5.96 10^9/L
same,Male NHP HGB,"[1]; 0.005 mg/kg IV, Pre-dose",132 g/L
same,Male NHP Neutrophils,"[1]; 0.005 mg/kg IV, Pre-dose",5.46 10^9/L
same,HCT,"[1]; 14/18 days, Female NHP",0.42 L/L
same,RBC,"[1]; 14/18 days, Female NHP",5.36 10^12/L
same,HCT,"[1]; 14/18 days, Male NHP",0.42 L/L
same,RBC,"[1]; 14/18 days, Male NHP",5.67 10^12/L
same,HCT,"[1]; 24 hours, Female NHP",0.43 L/L
same,RBC,"[1]; 24 hours, Female NHP",5.35 10^12/L
same,HCT,"[1]; 24 hours, Male NHP",0.42 L/L
same,RBC,"[1]; 24 hours, Male NHP",5.63 10^12/L
same,HCT,"[1]; 3 days, Female NHP",0.42 L/L
same,RBC,"[1]; 3 days, Female NHP",5.42 10^12/L
same,HCT,"[1]; 3 days, Male NHP",0.44 L/L
same,RBC,"[1]; 3 days, Male NHP",5.77 10^12/L
same,HCT,"[1]; 7 days, Female NHP",0.42 L/L
same,RBC,"[1]; 7 days, Female NHP",5.35 10^12/L
same,HCT,"[1]; 7 days, Male NHP",0.41 L/L
same,RBC,"[1]; 7 days, Male NHP",5.49 10^12/L
same,HCT,"[1]; Pre-dose, Female NHP",0.45 L/L
same,RBC,"[1]; Pre-dose, Female NHP",5.72 10^12/L
same,HCT,"[1]; Pre-dose, Male NHP",0.48 L/L
same,RBC,"[1]; Pre-dose, Male NHP",6.15 10^12/L
same,Female NHP HGB,"[1]; 0.05 mg/kg IV, 14/18 days",129 g/L
same,Female NHP Neutrophils,"[1]; 0.05 mg/kg IV, 14/18 days",1.27 10^9/L
same,Male NHP HGB,"[1]; 0.05 mg/kg IV, 14/18 days",133 g/L
same,Male NHP Neutrophils,"[1]; 0.05 mg/kg IV, 14/18 days",1.53 10^9/L
same,Female NHP HGB,"[1]; 0.05 mg/kg IV, 24 hours",116 g/L
same,Female NHP Neutrophils,"[1]; 0.05 mg/kg IV, 24 hours",2.63 10^9/L
same,Male NHP HGB,"[1]; 0.05 mg/kg IV, 24 hours",123 g/L
same,Male NHP Neutrophils,"[1]; 0.05 mg/kg IV, 24 hours",2.51 10^9/L
same,Female NHP HGB,"[1]; 0.05 mg/kg IV, 3 days",120 g/L
same,Female NHP Neutrophils,"[1]; 0.05 mg/kg IV, 3 days",4.08 10^9/L
same,Male NHP HGB,"[1]; 0.05 mg/kg IV, 3 days",116 g/L
same,Male NHP Neutrophils,"[1]; 0.05 mg/kg IV, 3 days",1.73 10^9/L
same,Female NHP HGB,"[1]; 0.05 mg/kg IV, 7 days",121 g/L
same,Female NHP Neutrophils,"[1]; 0.05 mg/kg IV, 7 days",2.77 10^9/L
same,Male NHP HGB,"[1]; 0.05 mg/kg IV, 7 days",126 g/L
same,Male NHP Neutrophils,"[1]; 0.05 mg/kg IV, 7 days",1.23 10^9/L

# From US20190142971A1, “FORMULATION AND DELIVERY OF MODIFIED NUCLEOSIDE, NUCLEOTIDE, AND NUCLEIC ACID COMPOSITIONS” (ModernaTX, Inc., priority 2013, published 2019)
